Measured values from US20250313625A1 (ELPISCIENCE SUZHOU BIOPHARMA, published 2025).
Read-outs that look alike come from different tables or passages of the source.

T1: mFc tagged human LAG3 ECD recombinant protein (human, UniProt P18627 23-450)
T1 construct: extracellular domain; purchased from Biointron; not shown: mouse IgG Fc (mFc) tag
T1 sequence (looked up): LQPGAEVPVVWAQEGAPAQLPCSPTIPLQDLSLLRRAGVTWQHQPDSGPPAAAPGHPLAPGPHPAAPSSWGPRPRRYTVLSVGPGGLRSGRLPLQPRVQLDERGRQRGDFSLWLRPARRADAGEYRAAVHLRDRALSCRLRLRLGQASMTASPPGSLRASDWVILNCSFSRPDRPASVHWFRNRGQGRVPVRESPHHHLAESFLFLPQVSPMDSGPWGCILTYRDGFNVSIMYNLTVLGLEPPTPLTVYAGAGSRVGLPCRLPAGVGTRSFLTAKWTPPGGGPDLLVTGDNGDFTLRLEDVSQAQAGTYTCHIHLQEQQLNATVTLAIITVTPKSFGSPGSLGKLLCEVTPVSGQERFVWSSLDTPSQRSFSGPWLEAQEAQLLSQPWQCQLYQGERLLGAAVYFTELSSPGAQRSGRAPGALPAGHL

T2: human LAG3 (form used in Octet, Biacore and HDX-MS not given) (human, UniProt P18627 23-450, limits assumed)
T2 sequence (looked up): T1 sequence (looked up)

T3: human LAG3, full length, stably expressed on cells (human, UniProt P18627 23-525)
T3 construct: whole, on cells; also called CHOK1-human LAG3
T3 sequence (looked up): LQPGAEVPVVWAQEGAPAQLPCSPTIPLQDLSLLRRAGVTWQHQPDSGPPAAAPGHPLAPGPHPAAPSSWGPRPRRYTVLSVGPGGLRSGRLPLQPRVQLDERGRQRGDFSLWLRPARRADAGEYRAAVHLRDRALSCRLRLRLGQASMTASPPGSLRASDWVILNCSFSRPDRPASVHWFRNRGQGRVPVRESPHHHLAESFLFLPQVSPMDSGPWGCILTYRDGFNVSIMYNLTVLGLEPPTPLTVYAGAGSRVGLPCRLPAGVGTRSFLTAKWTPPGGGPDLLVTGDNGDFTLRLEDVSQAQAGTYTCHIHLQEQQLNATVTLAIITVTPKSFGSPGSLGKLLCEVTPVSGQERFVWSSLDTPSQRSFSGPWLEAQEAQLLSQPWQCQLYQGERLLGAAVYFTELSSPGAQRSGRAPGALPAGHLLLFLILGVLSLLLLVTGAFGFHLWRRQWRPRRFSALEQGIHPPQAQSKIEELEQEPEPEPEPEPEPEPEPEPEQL

T4: hFc tagged human LAG3 ECD recombinant protein (human, UniProt P18627 23-450)
T4 construct: range 23-450; also called biotin labelled hFc tagged human LAG3 ECD; not shown: human IgG Fc tag
T4 sequence (looked up): T1 sequence (looked up)

T5: LAG3 D1 domain extra loop peptide (biotin labelled (site not stated))
T5 peptide: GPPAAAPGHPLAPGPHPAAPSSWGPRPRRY

T6: human LAG3 ECD recombinant protein (plate coated, tag not stated) (human, UniProt P18627 23-450)
T6 construct: extracellular domain
T6 sequence (looked up): T1 sequence (looked up)

B1: 021c (antibody, human IgG4, V domains shown)
VH: DIQLQESGPGLVKPSQSLSLTCSVTGYSITSGYYWNWIRQFPGNKLEWMGDISYDGGNNYNPSLKNRISITRDTSKNQFFLKLNSVTTEDTATYYCARDITLTGAMDYWGQGTSVTVSS
VL: DIVLTQSPASLAVSLGQRATISCRASESVDNYGISFMHWYQQRPGQPPKLLIYRASNLESGIPARFSGSGSRTDFTLTINPVETDDVATYYCQQSNKDPYTFGGGTKLEIK
notes: human IgG4 S228P / kappa chimeric antibody; also called chimeric antibody 021; not shown: human kappa light chain constant region (pcDNA3.4-hIgGk vector)
B2: 029c (antibody, human IgG4, V domains shown)
VH: DVKLVESGEDLVKPGGSLKLSCAASGFTFSSYAMSWVRQTPEKRLEWVAYVTSGGDYIYYADTVKGRFTISRDDVRNTLYLQMSSLKSEDTAMYYCTRVAYDYEWYFDVWGTGAPVTVSS
VL: DIVMTQSHKFMSTSVGDRVSITCKASQDVTTAVAWYQQKPGQSPKLLIYSASYRYTGVSDRFTGSGSGTDFTFTISSVQAEDLALYYCQQHDSSPWTFGGGTKLEIK
notes: human IgG4 S228P / kappa chimeric antibody; also called chimeric antibody 029; not shown: human kappa light chain constant region (pcDNA3.4-hIgGk vector)
B3: BMS-986016 (antibody, V domains shown)
VH: QVQLQQWGAGLLKPSETLSLTCAVYGGSFSDYYWNWIRQPPGKGLEWIGEINHRGSTNSNPSLKSRVTLSLDTSKNQFSLKLRSVTAADTAVYYCAFGYSDYEYNWFDPWGQGTLVTVSS
VL: EIVLTQSPATLSLSPGERATLSCRASQSISSYLAWYQQKPGQAPRLLIYDASNRATGIPARFSGSGSGTDFTLTISSLEPEDFAVYYCQQRSNWPLTFGQGTNLEIK

Key:
[1] = target: T1, mFc tagged human LAG3 ECD recombinant …; test: competitive FACS: mFc tagged human LAG3 ECD binding to MHC II on Raji cells
Description: (§1) Activity of the purified chimeric antibodies to block LAG3 and MHC II interaction was determined by competitive FACS assay. […] After washing, dye labeled anti-mouse Fc 2nd antibody (Sigma) was added and incubated at 37° C. for 1 hour. Fluorescence intensity was detected.

[2] = target: T2, human LAG3 (form used in Octet, Biacore …); test: BLI (Octet), 1:1 fit
Description: The purified chimeric antibodies were characterized for binding affinity against human LAG3 using Bio-Layer Interferometry technology (Octet system). The association and dissociation curves were fit with 1:1 binding model, and the Ka/Kd/KD values for each antibody were calculated.

[3] = target: T1, mFc tagged human LAG3 ECD recombinant …; test: competitive ELISA: mFc tagged human LAG3 ECD binding to plate coated LSECtin ECD
Description: Activity of the purified chimeric antibodies to block LAG3 and LSECtin interaction was determined by competitive ELISA assay. […] After washing, HRP labeled anti-mouse Fc 2nd antibody (Sigma) was added and incubated at 37° C. for 1 hour. Then, 100 μl/well of TMB solution (Biotechnology) was added. After incubation for 15 minutes at room temperature, the reaction was stopped by the addition of 50 μl of 1N HCl. OD 450 nm was read.

[4] = target: T3, human LAG3, full length, stably …; test: FACS on CHOK1 cells stably expressing human LAG3
Description: (§2) MFI was detected and EC₅₀ was calculated using GraphPad Prism9.0.

[5] = target: T2, human LAG3 (form used in Octet, Biacore …); test: BLI (Octet), 1:1 fit; remark: listed apart in the source
Description: (§3) The association and dissociation curves were fit with 1:1 binding model, and the Ka/Kd/KD values for each antibody were calculated.
as §3

[6] = target: T1, mFc tagged human LAG3 ECD recombinant …; test: competitive FACS: mFc-LAG3 ECD binding to Raji cells (MHC II)
Description: as §1

[7] = target: T4, hFc tagged human LAG3 ECD recombinant …; test: competitive ELISA format II: biotin hFc-LAG3 ECD binding to coated His-FGL1
Description: After washing, HRP labeled anti-His 2nd antibody (Sigma) was added and incubated at 37° C. for 1 hour. Then, 100 μl/well of TMB solution (Biotechnology) was added. After incubation for 15 minutes at room temperature, the reaction was stopped by the addition of 50 μl of 1N HCl. OD 450 nm was read. […] After washing, HRP labeled anti-SA 2nd antibody (Sigma) was added and incubated at 37° C. for 1 hour. Then, 100 μl/well of TMB solution (Biotechnology) was added. After incubation for 15 minutes at room temperature, the reaction was stopped by the addition of 50 μl of 1N HCl. OD 450 nm was read. […] The competition assay of format III is a competitive FACS assay. […] After washing, dye labeled anti-His 2nd antibody (Sigma) was added and incubated at 37° C. for 1 hour. Fluorescence intensity was detected.

[8] = target: T5, LAG3 D1 domain extra loop peptide; test: ELISA format I: biotin labelled LAG3 D1 domain extra loop peptide on plate coated antibody; axis printed as Ab Conc. (nM)
Description: (§4) In ELISA binding assay of format I (FIG. 9A), biotin labelled LAG3 D1 domain extra loop peptide was incubated with ELISA microplate coated anti-LAG3 antibodies. After washing, HRP labeled anti-SA 2nd antibody (Sigma) was added and incubated at 37° C. for 1 hour. Then, 100 μl/well of TMB solution (Biotechnology) was added. After incubation for 15 minutes at room temperature, the reaction was stopped by the addition of 50 μl of 1N HCl. OD 450 nm was read. In ELISA binding assay of format II (FIG. 9B), biotin labelled LAG3 D1 domain extra loop peptide and anti-LAG3 antibodies were co-incubated in ELISA microplate coated with SA. After washing, HRP labeled anti-human Fc 2nd antibody (Sigma) was added and incubated at 37° C. for 1 hour. Then, 100 μl/well of TMB solution (Biotechnology) was added. After incubation for 15 minutes at room temperature, the reaction was stopped by the addition of 50 μl of 1N HCl. OD 450 nm was read.

[9] = target: T3, human LAG3, full length, stably …; test: FACS on 293F cells stably expressing human LAG3
Description: Briefly the antibodies were incubated with 2×10⁵ target cells at 4° C. for 1 hour. After washing, fluorescence labeled anti-mouse IgG 2nd antibody (Life Technologies) was added and incubated at 4° C. for 1 hour. Geometric median fluorescence intensity (MFI) was detected and EC₅₀ was calculated using GraphPad Prism9.0.
as §2

[10] = target: T1, mFc tagged human LAG3 ECD recombinant …; test: competitive FACS: mFc tagged human LAG3 ECD binding to MHC II on Raji cells; remark: listed apart in the source
Description: as §1

[11] = target: T6, human LAG3 ECD recombinant protein …; test: competitive ELISA format I: His-FGL1 binding to coated LAG3 ECD
[12] = target: T5, LAG3 D1 domain extra loop peptide; test: ELISA format II: biotin labelled LAG3 D1 domain extra loop peptide and antibody co-incubated on streptavidin coated plate, anti-human Fc detection
Description: as §4

| Binder | %Blocking at 2 nM [1] [%] | %Blocking at 4 nM [1] [%] | %Blocking at 8 nM [1] [%] | Kd [2] [nM] | koff [2] [s⁻¹] | kon [2] [M⁻¹ s⁻¹] | %Blocking at 4 nM [3] [%] | %Blocking at 20 nM [3] [%] | %Blocking at 100 nM [3] [%] | Kd [5] [nM] | koff [5] [s⁻¹] | kon [5] [M⁻¹ s⁻¹] | IC50 [6] [nM] | TOP blocking (%) [6] [%] | IC50 [7] [nM] | TOP blocking (%) [7] [%] | binding result [8] | EC50 [9] [nM] | further results |
| --- | --- | --- | --- | --- | --- | --- | --- | --- | --- | --- | --- | --- | --- | --- | --- | --- | --- | --- | --- |
| B1 | 13.7 | 20.1 | 76.8 | 6.52 | 0.000905 | 139000 | 27.4 | 91.4 | 95.6 | 5.34 | 0.00271 | 508000 | 4.2 | 99.9 | 1.93 | 82 | no binding (tested: about 300 nM) | 15.6 | EC50 [4]: 1.6 nM; TOP MFI [4]: 620 |
| B2 | 9.7 | 24.1 | 84.3 | 3.58 | 0.00139 | 389000 | 61.6 | 92.7 | 97 | 7.7 | 0.0268 | 3.48e+06 | 4.2 | 96.4 | 2 | 84.5 | no binding (tested: about 300 nM) | 1.6 | %Blocking at 4 nM [10]: 21.5%; %Blocking at 8 nM [10]: 96.7%; TOP MFI [9]: 416; Blocking ratio at 66.7 nM (%) [11]: 62.6% |
| B3 |  |  |  |  |  |  |  |  |  |  |  |  |  |  |  |  |  |  | EC50 (read off the curve) [8]: ~0.08 nM; EC50 (read off the curve) [12]: ~0.2 nM |
